Source: publication PMC10397247
Blank lines part the entries; values can stand above or below the binder they belong to.

Experiments:
[1] = target: T1, 4H4038-bH; assay: two-hybrid library CCNG1;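 note: natural log of median RNA to DNA barcode read ratio; higher means stronger binding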
T1 chain: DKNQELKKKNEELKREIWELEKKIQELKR

[2] = target: T2, 4H3907-bH; assay: two-hybrid library CCNG1;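 note: natural log of median RNA to DNA barcode read ratio; higher means stronger binding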
T2 chain: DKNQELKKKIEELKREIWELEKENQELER

[3] = target: T3, 4H3592-bH; assay: two-hybrid library CCNG1;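 note: natural log of median RNA to DNA barcode read ratio; higher means stronger binding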
T3 chain: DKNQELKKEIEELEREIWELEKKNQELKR

[4] = target: T4, 4H3601-bH; assay: two-hybrid library CCNG1;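 note: natural log of median RNA to DNA barcode read ratio; higher means stronger binding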
T4 chain: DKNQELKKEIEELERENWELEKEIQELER

[5] = target: T5, 4H855-bA; assay: two-hybrid library CCNG1;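 note: natural log of median RNA to DNA barcode read ratio; higher means stronger binding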
T5 chain: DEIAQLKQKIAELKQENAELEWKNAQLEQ

[6] = target: T6, O11-bA; assay: two-hybrid library CCNG1;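 note: natural log of median RNA to DNA barcode read ratio; higher means stronger binding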
T6 chain: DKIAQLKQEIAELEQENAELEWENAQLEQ

[7] = target: T7, 4H953-bA; assay: two-hybrid library CCNG1
T7 chain: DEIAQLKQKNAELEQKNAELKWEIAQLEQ

[8] = target: T8, 4H968-bA; assay: two-hybrid library CCNG1
T8 chain: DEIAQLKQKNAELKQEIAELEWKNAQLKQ

[9] = target: T9, 4H918-bA; assay: two-hybrid library CCNG1
T9 chain: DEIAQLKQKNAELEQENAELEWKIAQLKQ

[10] = target: T10, 4H3588-AA; assay: two-hybrid library CCmax; conditions: mean of both orientations
T10 chain: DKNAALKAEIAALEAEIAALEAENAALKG

[11] = target: T11, 4H3718-AA; assay: two-hybrid library CCmax; conditions: mean of both orientations
T11 chain: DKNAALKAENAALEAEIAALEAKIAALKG

[12] = target: T12, 4H3413-AA; assay: two-hybrid library CCmax; conditions: mean of both orientations
T12 chain: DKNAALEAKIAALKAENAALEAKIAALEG

[13] = target: T13, 4H2611-AA; assay: two-hybrid library CCmax; conditions: mean of both orientations
T13 chain: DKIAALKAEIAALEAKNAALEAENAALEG

[14] = target: T14, 4H3162-AA; assay: two-hybrid library CCmax; conditions: mean of both orientations
T14 chain: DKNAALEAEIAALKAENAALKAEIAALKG

[15] = target: T15, 4H1513-AA; assay: two-hybrid library CCmax; conditions: mean of both orientations
T15 chain: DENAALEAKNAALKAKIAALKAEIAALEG

[16] = target: T16, 4H384-AA; assay: two-hybrid library CCmax; conditions: mean of both orientations
T16 chain: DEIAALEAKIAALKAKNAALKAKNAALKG

[17] = target: T17, 4H1874-AA; assay: two-hybrid library CCmax; conditions: mean of both orientations
T17 chain: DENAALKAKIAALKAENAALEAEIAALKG

[18] = target: T18, 4H697-AA; assay: two-hybrid library CCmax; conditions: mean of both orientations
T18 chain: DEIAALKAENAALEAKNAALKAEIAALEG

[19] = target: T19, 4H2648-AA; assay: two-hybrid library CCmax; conditions: mean of both orientations
T19 chain: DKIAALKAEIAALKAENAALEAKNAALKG

[20] = target: T20, 4H982-AA; assay: two-hybrid library CCmax; conditions: mean of both orientations
T20 chain: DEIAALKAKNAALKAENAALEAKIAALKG

[21] = target: T21, 4H1351-AA; assay: two-hybrid library CCmax
T21 chain: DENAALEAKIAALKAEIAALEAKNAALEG

[22] = target: T22, 4H1388-AA; assay: two-hybrid library CCmax; conditions: mean of both orientations
T22 chain: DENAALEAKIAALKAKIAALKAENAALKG

[23] = target: T23, 4H3631-AA; assay: two-hybrid library CCmax
T23 chain: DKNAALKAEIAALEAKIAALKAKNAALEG

[24] = target: T24, 4H1594-AA; assay: two-hybrid library CCmax; conditions: mean of both orientations
T24 chain: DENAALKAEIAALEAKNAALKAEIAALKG

[25] = target: T25, 4H1629-AA; assay: two-hybrid library CCmax; conditions: mean of both orientations
T25 chain: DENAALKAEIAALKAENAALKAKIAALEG

[26] = target: T26, 4H3133-AA; assay: two-hybrid library CCmax; conditions: mean of both orientations
T26 chain: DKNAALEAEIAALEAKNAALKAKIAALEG

[27] = target: T27, 4H2907-AA; assay: two-hybrid library CCmax; conditions: mean of both orientations
T27 chain: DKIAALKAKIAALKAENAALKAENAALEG

[28] = target: T28, 4H3865-AA; assay: two-hybrid library CCmax; conditions: mean of both orientations
T28 chain: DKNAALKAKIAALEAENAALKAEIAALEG

[29] = target: T29, 4H2620-AA; assay: two-hybrid library CCmax; conditions: mean of both orientations
T29 chain: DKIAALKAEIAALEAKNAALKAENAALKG

[30] = target: T30, 4H3697-AA; assay: two-hybrid library CCmax; conditions: mean of both orientations
T30 chain: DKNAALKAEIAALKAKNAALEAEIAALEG

[31] = target: T31, 4H3378-AA; assay: two-hybrid library CCmax
T31 chain: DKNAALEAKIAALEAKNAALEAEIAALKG

[32] = target: T32, 4H1845-AA; assay: two-hybrid library CCmax; conditions: mean of both orientations
T32 chain: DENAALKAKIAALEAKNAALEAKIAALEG

[33] = target: T33, 4H3056-AA; assay: two-hybrid library CCmax; conditions: mean of both orientations
T33 chain: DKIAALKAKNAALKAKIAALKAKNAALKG

[34] = target: T34, 4H2198-AA; assay: two-hybrid library CCmax; conditions: mean of both orientations
T34 chain: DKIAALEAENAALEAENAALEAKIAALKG

[35] = target: T35, 4H1401-AA; assay: two-hybrid library CCmax; conditions: mean of both orientations
T35 chain: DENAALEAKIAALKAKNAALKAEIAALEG

[36] = target: T36, 4H340-AA; assay: two-hybrid library CCmax; conditions: mean of both orientations
T36 chain: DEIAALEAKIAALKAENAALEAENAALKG

[37] = target: T37, 4H2553-AA; assay: two-hybrid library CCmax; conditions: mean of both orientations
T37 chain: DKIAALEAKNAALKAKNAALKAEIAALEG

[38] = target: T38, 4H32-AA; assay: two-hybrid library CCmax; conditions: mean of both orientations
T38 chain: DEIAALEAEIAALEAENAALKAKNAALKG

[39] = target: T39, 4H3606-AA; assay: two-hybrid library CCmax; conditions: mean of both orientations
T39 chain: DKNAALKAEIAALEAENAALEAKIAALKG

interaction score [1]: -0.403 | interaction score [2]: 1.02 | interaction score [3]: 0.863 | interaction score [4]: -0.0581
Binder: DKNQELKKEIEELEREIWELEKKNQELKR [4H3592-bH]

interaction score [5]: -0.844 | interaction score [6]: -3.09 | interaction score [7]: -1.71 | interaction score [8]: -0.685 | interaction score [9]: -1.16
Binder: DEIAQLKQKIAELKQENAELEWKNAQLEQ [4H855-bA]

interaction score [10]: 0.934 | interaction score [11]: 0.664 | interaction score [12]: -1.34 | interaction score [13]: -0.748 | interaction score [14]: -1.42 | interaction score [15]: -0.583 | interaction score [16]: 0.76 | interaction score [17]: -1.67 | interaction score [18]: -1.65 | interaction score [19]: -0.804 | interaction score [20]: -0.516 | interaction score [21]: 0.323 | interaction score [22]: -0.254 | interaction score [23]: 2.1 | interaction score [24]: -1.24 | interaction score [25]: -1.62 | interaction score [26]: -0.555 | interaction score [27]: -1.52 | interaction score [28]: -1.73 | interaction score [29]: -0.325 | interaction score [30]: -1.37 | interaction score [31]: -1.5 | interaction score [32]: -1.17 | interaction score [33]: -1.54 | interaction score [34]: -1.4 | interaction score [35]: -1.25 | interaction score [36]: -1 | interaction score [37]: -1.95 | interaction score [38]: -0.591 | interaction score [39]: -1.64
Binder: DENAALEAKIAALKAEIAALEAKNAALEG [4H1351-AA]
